According to US20080267971A1 (published 2008):
Substitutions are numbered along the chain they refer to.

T1: human Ang-2 V345M (human, UniProt O15123 19-496)
T1 sequence: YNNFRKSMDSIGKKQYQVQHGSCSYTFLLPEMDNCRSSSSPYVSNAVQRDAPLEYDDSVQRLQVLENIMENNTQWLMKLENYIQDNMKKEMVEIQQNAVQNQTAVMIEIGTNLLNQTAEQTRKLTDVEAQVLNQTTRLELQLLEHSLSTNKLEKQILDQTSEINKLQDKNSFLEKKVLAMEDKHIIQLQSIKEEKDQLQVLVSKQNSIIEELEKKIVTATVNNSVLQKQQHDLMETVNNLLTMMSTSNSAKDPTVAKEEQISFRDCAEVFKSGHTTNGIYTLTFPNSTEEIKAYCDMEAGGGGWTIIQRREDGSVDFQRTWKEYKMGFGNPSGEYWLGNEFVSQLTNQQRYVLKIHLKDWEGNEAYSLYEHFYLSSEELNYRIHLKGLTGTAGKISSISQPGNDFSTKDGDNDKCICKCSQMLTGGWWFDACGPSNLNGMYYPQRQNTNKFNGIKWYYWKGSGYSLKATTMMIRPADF

T2: human Ang-2443 (human, UniProt O15123 19-496)
T2 construct: Splice variant missing amino acids 96-148; supernatant of transfected 293F cells
T2 sequence: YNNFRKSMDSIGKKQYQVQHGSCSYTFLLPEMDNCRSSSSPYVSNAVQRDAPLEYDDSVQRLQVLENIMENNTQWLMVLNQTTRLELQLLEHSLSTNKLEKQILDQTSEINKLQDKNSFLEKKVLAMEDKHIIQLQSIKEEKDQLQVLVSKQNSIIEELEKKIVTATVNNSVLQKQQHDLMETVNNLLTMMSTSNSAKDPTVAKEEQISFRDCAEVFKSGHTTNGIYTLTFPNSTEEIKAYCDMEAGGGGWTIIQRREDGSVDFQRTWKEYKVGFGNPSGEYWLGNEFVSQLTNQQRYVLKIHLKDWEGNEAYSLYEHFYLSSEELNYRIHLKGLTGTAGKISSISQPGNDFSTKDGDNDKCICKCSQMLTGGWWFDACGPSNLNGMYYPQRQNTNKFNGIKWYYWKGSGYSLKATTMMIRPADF

T3: Human Ang-1/2 BsmI chimeric molecule (human)
T3 chain: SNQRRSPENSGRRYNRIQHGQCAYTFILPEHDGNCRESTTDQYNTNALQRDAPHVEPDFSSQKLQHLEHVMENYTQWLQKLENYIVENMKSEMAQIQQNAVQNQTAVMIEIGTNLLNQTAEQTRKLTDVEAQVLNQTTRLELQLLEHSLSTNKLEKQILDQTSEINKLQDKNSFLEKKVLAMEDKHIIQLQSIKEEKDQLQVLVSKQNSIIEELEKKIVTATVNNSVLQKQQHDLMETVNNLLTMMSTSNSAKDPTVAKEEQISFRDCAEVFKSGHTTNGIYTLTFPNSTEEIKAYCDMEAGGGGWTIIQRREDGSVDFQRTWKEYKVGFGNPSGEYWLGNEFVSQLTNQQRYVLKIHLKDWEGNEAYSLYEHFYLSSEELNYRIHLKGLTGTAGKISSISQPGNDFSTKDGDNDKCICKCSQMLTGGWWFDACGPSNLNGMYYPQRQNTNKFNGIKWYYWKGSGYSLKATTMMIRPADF

T4: Mouse/Human Ang-2 StuI chimeric molecule (mouse; human, UniProt O35608 19-496)
T4 construct: also called M/H Stul 310-496
T4 chain: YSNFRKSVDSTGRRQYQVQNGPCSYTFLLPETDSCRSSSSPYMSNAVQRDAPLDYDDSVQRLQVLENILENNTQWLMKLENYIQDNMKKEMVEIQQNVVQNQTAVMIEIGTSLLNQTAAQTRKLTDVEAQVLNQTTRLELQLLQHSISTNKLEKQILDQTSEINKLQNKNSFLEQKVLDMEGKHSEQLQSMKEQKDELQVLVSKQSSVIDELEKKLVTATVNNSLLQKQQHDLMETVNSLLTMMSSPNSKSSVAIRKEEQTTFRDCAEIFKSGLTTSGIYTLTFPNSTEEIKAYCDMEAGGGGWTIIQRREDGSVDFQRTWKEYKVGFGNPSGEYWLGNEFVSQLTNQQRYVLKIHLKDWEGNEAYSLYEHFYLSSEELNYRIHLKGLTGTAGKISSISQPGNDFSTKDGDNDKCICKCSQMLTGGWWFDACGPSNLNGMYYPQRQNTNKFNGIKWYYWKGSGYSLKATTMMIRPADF

T5: mouse Angiopoietin-2 (mouse, UniProt O35608 19-496)
T5 construct: Used as conditioned medium of transfectants; also called mAng-2; mouse Ang-2
T5 sequence: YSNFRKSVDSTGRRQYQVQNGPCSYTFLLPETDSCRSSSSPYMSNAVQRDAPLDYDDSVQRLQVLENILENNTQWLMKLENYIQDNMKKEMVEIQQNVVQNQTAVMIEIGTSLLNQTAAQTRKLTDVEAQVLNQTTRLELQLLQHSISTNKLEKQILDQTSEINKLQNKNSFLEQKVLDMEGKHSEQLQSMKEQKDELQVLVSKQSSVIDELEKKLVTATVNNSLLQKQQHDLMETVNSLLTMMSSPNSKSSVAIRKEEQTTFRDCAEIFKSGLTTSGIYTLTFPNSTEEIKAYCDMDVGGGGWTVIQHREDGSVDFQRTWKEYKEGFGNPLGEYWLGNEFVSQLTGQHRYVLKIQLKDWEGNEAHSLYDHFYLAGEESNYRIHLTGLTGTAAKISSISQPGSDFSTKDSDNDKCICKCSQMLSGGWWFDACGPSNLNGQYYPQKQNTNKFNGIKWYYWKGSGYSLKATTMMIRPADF

B1: mAb 5.108.1 (antibody, V domains shown)
VH: QVQLVESGGGVVQPGRSLRLSCAASGFTFSSYGMHWVRQAPGKGLEWVAVIWYDGSNKYYADSVKGRFTISRDNSKNTLYLQMNSLRAEDTAMYYCARELALWGQGTLVTVSS
VL: EIVMTQSPATLSVSPGERATLSCRASQSVSSYLAWYQQKPGQAPRLLIYGAFTRATGIPARFRGSGSGPEFTLTISSLQSEDFAVYYCQQYSHWWTFGQGTKVEIKR
notes: Human hybridoma IgG (XenoMouse); also called x5.108
B2: mAb 5.39.1 (antibody, V domains shown)
VH: QVQLVQSGAEVTKPGASVKVSCKASGYTFTAYHMYWVRQAPGQGLEWMGWINPNSGGTNYAQKFQGRVTMTRDTSISTAYMELSRLRSDDSPVYYCARDQGIAAAGPFDYWGQGTLVTVSS
VL: B1 VL with E17D, Y32N, L33F, A51S, F52S, R63S, P69T, S92H, H93Y, I105F
notes: Human hybridoma IgG (XenoMouse); also called x5.39
B3: mAb 5.40.2 (antibody, V domains shown)
VH: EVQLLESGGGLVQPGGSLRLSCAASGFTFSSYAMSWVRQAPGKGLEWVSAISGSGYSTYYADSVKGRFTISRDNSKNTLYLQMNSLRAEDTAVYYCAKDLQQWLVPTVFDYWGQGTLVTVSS
VL: B1 VL with Y32N, A34V, G50D, A51S, F52S, A60V, R63S, P69T, S92N
notes: Human hybridoma IgG (XenoMouse); also called x5.40
B4: mAb 5.103.1 (antibody, V domains shown)
VH: QVQLVQSGAEVKKPGASVKVSCKASGYTFTGYYLYWVPQAPGQGLEWMGWISPNSGGTNYAQKFQGRVTMTRDTSISTAYMELSRLRSDDTAVYYCARDQVIAVAGPFDYWAQGTLVTVSS
VL: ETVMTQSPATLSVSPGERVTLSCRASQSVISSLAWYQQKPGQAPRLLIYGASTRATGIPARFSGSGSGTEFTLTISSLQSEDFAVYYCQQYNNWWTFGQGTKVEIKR
notes: Human hybridoma IgG (XenoMouse); also called 5.103.3; x5.103
B5: mAb 5.35.1 (antibody, V domains shown)
VH: EVQLVESGGGVVRPGGSLRLSCTTSGFTFDDYGMSWVRQAPGKGLEWVSGINWNGGSTVYADSVKGRFTISRDSAKNSLYLQMNSLRAEDTALYHCARNKQWLWYFDLWGRGTLVTVSS
VL: EIVMTQSPATLSVSPGERATLSCRASQSVSSNLAWYQQKPGQAPRLLIYGASTRATGIPARFSGSGSGTEFTLTISSLQSEDFAVYYCEQYNNWPLTFGGGTKVEIKR
notes: Human hybridoma IgG (XenoMouse); also called x5.35

molecular target: T1, human Ang-2 V345M; test: ELISA

% of binding to human Ang-2	Binder
100%	B1
100%	B2
100%	B3
100%	B4
100%	B5

molecular target: T2, human Ang-2443; test: ELISA

% of binding to human Ang-2	Binder
100%	B1
100%	B2
100%	B3
100%	B4
100%	B5

Molecular target: T3, Human Ang-1/2 BsmI chimeric molecule
Test: ELISA

% of binding to human Ang-2	Binder
100%	B1
100%	B2
100%	B3
100%	B4
100%	B5

Molecular target: T4, Mouse/Human Ang-2 StuI chimeric molecule
Test: ELISA

% of binding to human Ang-2	Binder
100%	B1
100%	B2
100%	B3
100%	B4
100%	B5

molecular target: T5, mouse Angiopoietin-2; test: ELISA, recombinant mouse Ang-2

binding result	Binder
no binding	B1
no binding	B2
no binding	B3
no binding	B4
no binding	B5
